Measurements reported in patent US20180134804A1 (Memorial Sloan Kettering, published 2018).

Tests used:
[1] = biological target: T1, HLA-A0201 on T2 cells without added peptide (human); assay: T2 stabilization control, flow cytometry: BB7 staining of T2 cells pulsed with the peptide
T1 construct: Used as the negative target (T2 cells alone) and as the HLA-A0201 partner of the free peptides in the T2 stabilization assay; also called T2 alone; empty T2 cells

[2] = biological target: T1, HLA-A0201 on T2 cells without added …; assay: as above; remark: listed apart in the source
[3] = biological target: T2, biotinylated Ras10-WT/HLA-A0201 complex monomer (human, chain 1: C-terminal BirA substrate peptide (letters not given), enzymatically biotinylated by BirA); assay: BLI (ForteBio Octet QK), biotinylated pMHC on streptavidin sensor
T2 construct: also called Ras wt/HLA-A0201; not shown: the BirA substrate peptide (BSP) at the C-terminus of the heavy chain

[4] = biological target: T3, Ras10-G12C peptide/HLA-A0201 complex on peptide-pulsed T2 cells (human); assay: flow cytometry, indirect staining of peptide-pulsed T2 cells (peptide 50 µg/ml)
T3 construct: also called Ras-G12C

[5] = biological target: Ras10-G12D peptide/HLA-A0201 complex on peptide-pulsed T2 cells (human); assay: as above
[6] = biological target: T4, Ras9-WT peptide/HLA-A0201 complex on peptide-pulsed T2 cells (human); assay: flow cytometry, indirect staining of T2 cells pulsed with 50 ug/ml peptide
T4 construct: also called T2-0141WT

[7] = biological target: T5, Ras9-G12V peptide/HLA-A0201 complex on peptide-pulsed T2 cells (human); assay: as above
T5 construct: also called K-Ras9 G12V/HLA A0201; T2-014A1mut

[8] = biological target: T1, HLA-A0201 on T2 cells without added …; assay: flow cytometry of T2 cells without peptide
[9] = biological target: T6, Ras10-WT peptide/HLA-A0201 complex on peptide-pulsed T2 cells (human); assay: flow cytometry of T2 cells pulsed with peptide
T6 construct: also called Ras WT; T2-0142WT

[10] = biological target: T7, Ras10-G12V peptide with alanine substitution at position 12/HLA-A0201 complex on peptide-pulsed T2 cells (human); assay: flow cytometry of T2 cells pulsed with peptide
T7 construct: Position 12 counts on the Ras protein; also called peptide containing an alanine substitution at position 12

[11] = biological target: RAS10-G10A peptide/HLA-A0201 complex on peptide-pulsed T2 cells; assay: flow cytometry of T2 cells pulsed with peptide
[12] = biological target: T8, biotinylated Ras10-G12V/HLA-A0201 complex monomer (human, chain 1: C-terminal BirA substrate peptide (letters not given), enzymatically biotinylated by BirA); assay: BLI (ForteBio Octet QK), biotinylated pMHC on streptavidin sensor, mAb at 10 µg/mL, 1:1 model partial fit
T8 construct: also called Ras G12V/HLA-A0201; Ras-G12V/HLA A0201 complex monomer; not shown: the BirA substrate peptide (BSP) at the C-terminus of the heavy chain

[13] = biological target: RAS10-G13A peptide/HLA-A0201 complex on peptide-pulsed T2 cells; assay: flow cytometry of T2 cells pulsed with peptide
[14] = biological target: RAS10-V9A peptide/HLA-A0201 complex on peptide-pulsed T2 cells; assay: flow cytometry of T2 cells pulsed with peptide
[15] = biological target: T2, biotinylated Ras10-WT/HLA-A0201 complex …; assay: BLI (ForteBio Octet QK), biotinylated pMHC on streptavidin sensor, mAb at 10 µg/mL, 1:1 model partial fit
[16] = biological target: T1, HLA-A0201 on T2 cells without added …; assay: flow cytometry, scFv phage on T2 cells, anti-M13 detection
[17] = biological target: T6, Ras10-WT peptide/HLA-A0201 complex on …; assay: flow cytometry, scFv phage on peptide-loaded T2 cells, anti-M13 detection
[18] = biological target: T4, Ras9-WT peptide/HLA-A0201 complex on …; assay: as above

B1: RAS10-G12S peptide (peptide)
peptide: KLVVVGASGV
notes: peptide of the complex m14; also called R10-G12S
B1: binds [1].

KLVVVGGVGV (Position 11 counts on the Ras protein) [Ras10-A11G peptide]: binds [1].

LVVVGAGGV (Free synthetic peptide) [RAS9-WT peptide]: binds [2].

B2: Ras mAb #4, full-length human IgG1 (antibody, V domains shown)
VH: EVQLVQSGAEVKKPGASVKVSCKASGYTFTAYYLHWLRQAPGQGLEWMGWMNTNNGATRYAQKFQDRVTMTRDTSINTAYMEMSGLSSDDTAMYYCARGDISQDFADVWGQGTLVTVSS
VL: NFMLTQPHSVSESPGKTVTISCTGSSGSIASNYVQWYQQRPGSAPTILIYEDNKRPSGVPDRFSGSIDSSSNSASLTISGLKTGDEADYYCQSYDDINHWVFGGGTKLTVLG
notes: also called clone #4; Ras antibody #4
B2: no binding (tested: 10 µg/mL) [3]; no binding [4]; no binding [5]. B2: no binding (tested: 10 ug/ml) [6]; no binding (tested: 10 ug/ml) [7]; no binding (tested: 10 ug/ml) [8]. B2: no binding (tested: 10 ug/ml) [9]; no binding (tested: 10 ug/ml) [10]; no binding (tested: 10 ug/ml) [11]. It also gave a Kd [12] of 9.19 nM, a koff [12] of 0.00363 s⁻¹ and a kon [12] of 396000 M⁻¹ s⁻¹.

B3: Ras mAb #7, full-length human IgG1 (antibody, V domains shown)
VH: EVQLVESGAEVKEPGSSVKVSCKASGGTFSSYGISWIRQAPGQGLEWMGEIIPIFGTPNYAQKFQGRVTITADESTSTAYVELSSLRSDDTAVYYCARSYYGYFDGWGQGTLVTVSS
VL: DIQMTQSPSSLSASVGDRVTITCQASQDISNYLNWYQQKPGKAPKLLIYDASNLETGVPSRFSGSGSGTDFTFTISSLQPDDFATYYCQQYKSYPLTFGGGTKVEIKR
notes: also called clone #7; Ras antibody #7
B3: no binding [4]; no binding [5]; no binding (tested: 10 ug/ml) [6]. B3: no binding (tested: 10 ug/ml) [7]; no binding (tested: 10 ug/ml) [8]; binds [13]. The binding result [14] was “binds”, the Kd [12] was 8.77 nM and the koff [12] was 0.000746 s⁻¹. For the same binder, the kon [12] was 85000 M⁻¹ s⁻¹, the Kd [15] was 65.1 nM and the koff [15] was 0.00153 s⁻¹. The kon [15] was 23400 M⁻¹ s⁻¹.

B4: scFv phage clone #2 (scFv)
scFv: QSVLTQPPSVSGAPGQRVTISCTGSSSNIGAGYDVHWYQQLPGTAPKLLIYGNSNRPSGVPDRFSGSKSGTSASLAITGLQAEDEADYYCQSYDSSLSGSVFGTGTKVTVLGSRGGGGSGGGGSGGGGSLEMAVQLVQSGAEVKKPGSSVKVSCKASGGTFSSYTINWVRQAPGQGLEWMGGFIPISGTVNYAQKFQGRVTITADESTSTAYMELSSLRSEDTAVYYCARPLDWTEDIWGQGTLVTVSS
notes: also called K-Ras G12V/HLA A0201 specific phage clone
B4: no binding [16]; no binding [17]; no binding [18].

B5: Ras mAb #2, full-length human IgG1 (antibody, V domains shown)
VH: QVQLVQSGAEVKKPGSSVKVSCKASGGTFSSYTINWVRQAPGQGLEWMGGFIPISGTVNYAQKFQGRVTITADESTSTAYMELSSLRSEDTAVYYCARPLDWTEDIWGQGTLVTVSS
VL: QSVLTQPPSVSGAPGQRVTISCTGSSSNIGAGYDVHWYQQLPGTAPKLLIYGNSNRPSGVPDRFSGSKSGTSASLAITGLQAEDEADYYCQSYDSSLSGSVFGTGTKVTVLG
notes: also called clone #2; Ras antibody #2
B5: no binding (tested: 10 µg/mL) [3]; no binding [5]; no binding (tested: 10 ug/ml) [6]. The binding result [8] was “no binding (tested: 10 ug/ml)”, the binding result [9] was “no binding (tested: 10 ug/ml)” and the Kd [12] was 8.88 nM.
